Data on two molecules can be found in patent US20210380699A1 (published 2021).

Experiment [1] has as its target T1, Cyno PD-L1 FLAG (cynomolgus PD-L1 ECD with FLAG tag) (cynomolgus monkey).
T1 construct: also called cynomolgus monkey PD-L1-FLAG
The experiment is described as follows: SPR 37C, antibody captured, PD-L1 analyte.

For experiment [2], the target named is T2, Human PD-L1 His (human PD-L1 ECD with C-terminal His tag) (human, UniProt Q9NZQ7 19-238).
T2 construct: Biotinylated in ELISA and AlphaScreen assays; also called hPD-L1-his; biotinylated PD-L1 his
The experiment is described as follows: SPR 37C, antibody captured, PD-L1 analyte.

Experiment [3] concerns the target T3, Human PD-L1 expressed on cells (human, UniProt Q9NZQ7 19-290). Put plainly: cell-based or functional assay.
Experiment [4] deals with T3, Human PD-L1 expressed on cells. Put plainly: cell-based or functional assay. This is another data set of the same source.
For experiment [5] the target is unchanged. The experiment is described as follows: flow cytometry on CHO hPD-L1 cells, competitor biotin-PD-1-Fc, n = 2. As to the method: (§1) 150 μL FACS buffer is added and cells washed as described above. […] Cells are incubated at 4° C. for 60 minutes. Cells are washed twice with 150 μL FACS buffer, centrifuging at 300 g for 3 minutes after each wash step and aspirating supernatant. Cells are fixed, washed and resuspended for analysis as above. APC signal intensity (geometric mean) is measured by flow cytometry using a Beckman Coulter CYTOFLEX instrument. Data is plotted as percentage of receptor binding.
For orientation: In flow cytometry, cells or beads pass a laser one at a time.

In experiment [6] the target is T4, Mouse PD-L1 ECD His (mouse, UniProt Q9EP73 19-239).
T4 construct: also called mouse PD-L1 (his-tagged)
Put plainly: SPR 25C and 37C.

Experiment [7] concerns the target T1, Cyno PD-L1 FLAG (cynomolgus PD-L1 ECD …). The experiment is described as follows: SPR 25C, antibody captured, PD-L1 analyte. How it is done: (§2) Label-free surface plasmon resonance (SPR) analysis was carried out on the ProteOn XPR36 (BioRad) array SPR machine. An anti-human IgG capture surface was created on a GLC biosensor chip using a combination of anti-human Fc antibodies (Jackson Labs 09-005-008,109-006-008 and 309-006-008) by amine coupling. […] The data was analysed using the 1:1 model inherent to the ProteOn XPR36 analysis software.

For experiment [8], the target named is T2, Human PD-L1 His (human PD-L1 ECD with …). Put plainly: SPR 25C, antibody captured, PD-L1 analyte. As to the method:
as §2

The target is the same in experiment [9]. Put plainly: ELISA, biotin-PD-L1 to plate-bound PD-1, antibody titrated. How it is done: (§3) Excess protein was removed by washing with PBS-Tween (0.1% v/v) and the wells were blocked with 1% w/v bovine serum albumin (BSA, Sigma) in PBS for 1 hour at room temperature, after which plates were washed with PBS-Tween as above. 60 μL of a titration (three-fold serial dilution) of antibody was added to a 96-well, non-binding plate diluted in ELISA assay buffer (PBS +0.1% BSA). […] The plate was incubated for 30 minutes before transferring 50 μL to the coated plates. The coated plates were incubated for 1 hour at room temperature. Excess protein was removed by washing with PBS-Tween (0.1% v/v). PD-L1 binding was detected using streptavidin labelled europium (Perkin Elmer) diluted 1/1000 in DELFIA assay buffer (Perkin Elmer). The plates were washed with TBS (Tris buffered saline)-Tween (0.1% v/v) and 50 μL/well of DELFIA Enhancement solution (Perkin Elmer) was added to the plate. Time-resolved fluorescence was measured at 615 nm on an Envision plate reader (PerkinElmer). Percentage specific binding was calculated as defined in Equation 3. IC50 values were determined using GraphPad Prism software by curve fitting using a four-parameter logistic equation (Equation 4). Values for KM121 antibodies are a mean of three independent experiments. Values for KM122 are from a single experiment.
A general note: ELISA stands for enzyme-linked immunosorbent assay.

Experiment [10] addresses T3, Human PD-L1 expressed on cells. The experiment is described as follows: cell-based or functional assay. This is another data set of the same source.
The target is the same in experiment [11]. Put plainly: flow cytometry on CHO hPD-L1 cells, competitor biotin-CD80-Fc, n = 2. As to the method:
as §1
(§4) All other steps are performed as per plate 2.

Experiment [12] has as its target T2, Human PD-L1 His (human PD-L1 ECD with …). Put plainly: ELISA, biotin-PD-L1 to plate-bound CD80, antibody titrated. How it is done:
as §3

The target of experiment [13] is T3, Human PD-L1 expressed on cells. Put plainly: flow cytometry on CHO hPD-L1 cells, competitor biotin-CD80-Fc, n = 1. How it is done: as §1, §4
Experiment [14] shares this target. The experiment is described as follows: flow cytometry on CHO hPD-L1 cells, competitor biotin-PD-1-Fc, n = 1. How it is done: as §1
Experiment [15] addresses T2, Human PD-L1 His (human PD-L1 ECD with …). Put plainly: ELISA, biotin-PD-L1 to plate-bound CD80, antibody titrated. As to the method:
(§5) Excess protein was removed by washing with PBS-Tween (0.1% v/v) and the wells were blocked with 1% w/v bovine serum albumin (BSA, Sigma) in PBS for 1 hour at room temperature, after which plates were washed as described previously. 60 μL of a titration (three-fold dilutions from 100 nM) of antibody was added to a 96-well, non-binding plate diluted in ELISA assay buffer (PBS+0.1% BSA). […] The plate was incubated for 30 min before transferring 50 μL to the coated plates.
(§6) The coated plates were incubated for 1 hour at room temperature. Excess protein was removed by washing with PBS-Tween (0.1% v/v). PD-L1 binding was detected using streptavidin labelled Europium (Perkin Elmer) diluted 1/1000 in DELFIA assay buffer (Perkin Elmer). The plates were washed with TBS (Tris buffered saline)-Tween (0.1% v/v) and 50 μL/well of DELFIA Enhancement solution (Perkin Elmer) was added to the plate. The time-resolved fluorescence was measured at 615 nm on an Envision plate reader (PerkinElmer). Percentage specific binding was calculated as defined in Equation 3.
This is another data set of the same source.

Experiment [16] shares this target. Put plainly: SPR 25C, antibody captured, PD-L1 analyte. How it is done: Label-free surface plasmon resonance (SPR) analysis was carried out on the ProteOn XPR36 (BioRad) array SPR machine. An anti-human IgG capture surface was created on a GLC biosensor chip using amine coupling of an anti-human IgG from GE Healthcare. […] The assay was carried out at 25° C. using HBS-EP (Teknova H8022). Buffer alone was used to reference the binding sensorgrams. The data was analysed using the 1:1 model inherent to the ProteOn XPR36 analysis software.
The source holds these as a separate data set.

The target is the same in experiment [17]. Put plainly: ELISA, biotin-PD-L1 to plate-bound PD-1, antibody titrated. As to the method: as §5, §6
This is another data set of the same source.

T2 sequence (Q9NZQ7 19-238 limits assumed): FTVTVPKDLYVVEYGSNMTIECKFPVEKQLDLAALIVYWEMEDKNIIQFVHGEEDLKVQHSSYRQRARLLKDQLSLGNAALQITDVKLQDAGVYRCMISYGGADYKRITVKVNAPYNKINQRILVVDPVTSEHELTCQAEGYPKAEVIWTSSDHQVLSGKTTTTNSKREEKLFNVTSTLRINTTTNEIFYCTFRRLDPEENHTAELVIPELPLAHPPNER
T3 sequence (Q9NZQ7 19-290 limits assumed): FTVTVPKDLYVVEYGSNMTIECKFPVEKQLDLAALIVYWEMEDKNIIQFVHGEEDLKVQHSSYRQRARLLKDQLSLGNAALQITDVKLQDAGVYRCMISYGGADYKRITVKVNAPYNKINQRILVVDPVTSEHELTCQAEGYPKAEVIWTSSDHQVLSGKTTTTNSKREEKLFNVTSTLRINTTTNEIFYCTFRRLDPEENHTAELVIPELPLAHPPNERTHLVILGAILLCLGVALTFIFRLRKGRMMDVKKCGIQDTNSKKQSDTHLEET
T1 sequence (chain, as listed by the source limits assumed): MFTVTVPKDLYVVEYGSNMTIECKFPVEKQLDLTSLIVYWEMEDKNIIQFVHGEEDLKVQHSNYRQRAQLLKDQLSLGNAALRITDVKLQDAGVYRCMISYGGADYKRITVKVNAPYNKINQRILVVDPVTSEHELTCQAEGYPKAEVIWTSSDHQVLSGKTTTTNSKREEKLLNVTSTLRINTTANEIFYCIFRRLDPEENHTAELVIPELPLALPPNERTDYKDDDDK
T4 sequence (Q9EP73 other isoform, or with tags, fused parts or gaps): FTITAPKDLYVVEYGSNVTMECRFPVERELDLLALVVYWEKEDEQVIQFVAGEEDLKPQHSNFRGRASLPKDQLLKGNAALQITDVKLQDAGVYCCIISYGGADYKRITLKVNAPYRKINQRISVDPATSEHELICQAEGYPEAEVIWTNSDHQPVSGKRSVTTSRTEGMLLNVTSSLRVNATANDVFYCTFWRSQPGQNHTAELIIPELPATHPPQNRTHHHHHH

B1: 414B06 (antibody, V domains shown)
VH: EVHLVESGGGLVQPGGSLRLSCAASGFTFSSYWMNWVRQAPGKGLEWVANIKQDGSEKYYVDSVKGRFTVSRDNAKNSLYLQMNSLRAEDTAVYYCARVRQWSDYSDYWGQGTPVTVSS
VL: DIQMTQSPSSVSASVGDRVTITCRASQGISSWLAWYQQKPGKAPKLLIYAASSLQSGVPSRFSGSGSGTDFTLTISSLQPEDFATYYCQQANSFPFTFGPGTKVDIKR
notes: also called 414606
What is called Kd is the constant that tells how readily two partners part at equilibrium. As a reminder, the IC50 is the concentration needed to halve the response being measured. The low end stands for inhibition by little substance, the high end for a need for much substance. Consider B1, for which the Kd in experiment [1] was found to be 0.794 nM; in [2], 0.778 nM; in experiment [7], 0.192 nM; in [8], 0.172 nM. Besides, the “mean EC50, IFNγ induction, monocyte-T cell co-culture” value in experiment [3] is 0.012 nM. Moreover, in experiment [3], the “mean fold increase IFNγ, monocyte-T cell co-culture” value turned out to be 3.33 fold. The “EC50, IL-2 induction, murine T cell hybridoma assay, n = 1” value in experiment [4] stood at 0.59 nM. Further, in experiment [4], the “EC50, IL-2 induction, murine T cell hybridoma assay, n = 2” value worked out at 0.3 nM. Also, the “EC50, IL-2 induction, murine T cell hybridoma assay, n = 3” value in experiment [4] was found to be 0.18 nM. For the same molecule, the IC50 in experiment [5] turned out to be 1.22 nM; in experiment [9], 1.84 nM; in experiment [11], 1.22 nM; in experiment [12] it was 1 nM; in experiment [13], 1.26 nM; in experiment [14], 0.95 nM. Moreover, the binding result in experiment [6] was “no binding”. The “EC50, ADCC reporter assay, n = 1” value in experiment [10] is 0.0191 nM. In experiment [10], the “EC50, ADCC reporter assay, n = 2” value turned out to be 0.015 nM. The “EC50, ADCC reporter assay, n = 3” value in experiment [10] was determined as 0.0242 nM. The “max fold induction, ADCC reporter assay, n = 1” value in experiment [10] was 10.9 fold. Moreover, the “max fold induction, ADCC reporter assay, n = 2” value in experiment [10] was 20.1 fold. The “max fold induction, ADCC reporter assay, n = 3” value in [10] was found to be 31.5 fold.

B2: 1D05 (control antibody of Examples 14 and 15, constant region not stated) (antibody, V domains shown)
VH: EVQLVESGGGLVQPGRSLRLSCAASGFTFDDYAMHWVRQVPGKGLEWVSGISWIRTGIGYADSVKGRFTIFRDNAKNSLYLQMNSLRAEDTALYYCAKDMKGSGTYGGWFDTWGQGTLVTVSS
VL: not shown
notes: Unfused 1D05 run beside the immunocytokines; also called wild type antibody
B2: the IC50 was found to be 0.882 nM in [15] and 1.41 nM in [17]. In addition, the Kd in experiment [16] stood at 0.171 nM.
